Results taken from the nanobody polyreactivity screen of Harvey et al. (2022).

assay: yeast display, Sf9 membrane polyspecificity reagent, FACS + sequencing; frameworks hold sequencing errors
Method in brief: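 Synthetic nanobody libraries on Saccharomyces cerevisiae BJ5465 were galactose-induced for 36–48 hours, stained 1 hour at 4 °C with 10% biotinylated, detergent-solubilized Sf9 membrane reagent and enriched on streptavidin microbeads. FACS then separated cells into low and high (top ~1%) gates by anti-HA (expression) and streptavidin (reagent binding) fluorescence. Genes were colony-PCR amplified, MiSeq 2 × 250 sequenced and CDR-length filtered. A clone's polyreactivity label is that of its gate of origin.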

| Sequence | polyreactivity (PSR sort gate) |
| --- | --- |
| QVQLVESGGGLLQAGGSLRLSCAASGRIFSIYAMGWYRPAPGKEREMVAAIRRGGSTSYADSVKGRFTISRDNAKNTVYLLMNSLKPEDTAVYYCAARLRYLGYDYWGQGTQVTVSS | high polyreactivity |
| QVQLVESGGGLVQAGGSLRLSCAASGFTFFRYAMGWYSQAPGKERELVATITRGGSTNYADSVKGRFTISRDNAKNTVYLQMNSLQPVDTAVYYCNKDKKTPTFDYWGQGTQVTVSS | low polyreactivity |
| QVQLVESGGGLVQAGGSLRLSCPASGSTFGPYAMGWYRQAPGKERELVAAISSTGGSTYYADSVKGRFTISRDNAKNTVYLQMNSLKPEDTAVYYCAAYSTYARGYWGQGTQVTVSS | high polyreactivity |
| QVQLVESGGGLVQAGGSLRLSCAASGTFAFYTMGWYRQAPGKERELVAAISWDGGDTYYADSVKGRFTISRDNAKNTVYLQMNSLKPEDTAVYYCAADYSNSGYGYWGQGTQVTVSS | low polyreactivity |
| QVQLVESGGGLVQAGGSLRLSCAASGFTFEKYSMGWYRQAPGKERELVAAITQSAGSTYADSVKGRFTISRDNAKNTVYLQMISLKPEDTAVYYFAARYRYPYYARYGYWGQGTQVTVSS | high polyreactivity |
| QVQLEESGGGLVQAGGSLRLSCAASGSIFTYYAMGSYRQAPGKERELVARITRGGGTTYYADSVKGRFTISRDNAKNTVYLQMNSLKPEDTAVYYCAADFFAGTPRTFDYWGQGSQVTVSS | high polyreactivity |
| QVQLVESGGGLVQAGGSLRLSCAASGSTFVINAMGWYRQAPGKERELVARISSSGGRTYYADSVKGRFTISRDNAKNTVYLQMNSLKPEDTAVYYCAKRGYLFLRGSVRVGYNYWGHGTQVTVSS | low polyreactivity |
| QVQLVESGGGLVQAGGSLRLSCAASGSTFKVYAMGWYRQAPGKERELVATISKSGSTYADSVKGRFTISRDNAKNTVYLQMNSLKPEDTAVYYCAADLYTYPRTRRRAYGYWGQGTQVTVSS | high polyreactivity |
| QVQLVESGGGLVQAGGSLRLSCAASGRTFVVNAMGWYRQAPGKERELVAAIYADSVKGRFTISRDNAKNTVYLQMNSLKPEDTAVYYCAASGGTWVYYRPEYDYWGQGTQVTVSS | low polyreactivity |
| QVQLVESGGGLVQAGGSLRLSCAASGMIFGYYAMGWYRQAPAKERELVAAITGSGGRTYYADSVKGRFTISRDNAKNTVYLQMNSLKTEDTAVYYCADRGVNGMGYWGQGTHVTVSS | high polyreactivity |
| QVQLVESGGGLVQAGGSLRLSCAASGSIFTYNAMGWYRQAPGKERELVAVISWSGGSTYYADSVKGRFTISRDNAKNTVYLQMNSLKPEDTAVYYCNAYYYRPYGNKYGYWGQGTQVTVSS | high polyreactivity |
| QVQLVESGGGLVQAGGSLRLSCAASGFTFSYYAMGWYRQAPGKERELVARISFSGTRTYYADSVKGRFTISRDNAKNTVYLEMNSLKPEDTAVYYCAARFGYVGITARYDYWGQGTQVTVSS | high polyreactivity |
| QVQLVESGGGLVQAGGSLRLSCAASGRILRWNAMGWYRQAPGKEREMVAAIDWRGGSTYYADSVKGRFTISRDNAKNTVYLQMNSLKPEDTAVYYCAVDYYPYEVSYVRMDYWGQGTQVTVSS | low polyreactivity |
| QVQLVESGGGLVQAGGSLRLSCAASGLIFPYYTMGWYRQAPGKERELVAAISWRGGGTFYADSVKGRFTISRDNAKNTVYLQMNSLNPEDTAVYYCAAQLYPYRWYYWGQGTQVTVSS | high polyreactivity |
| QVQLVESGAGLVQAGGSLRLSWAASGSNYDIYAMGWYRQAPGKERELVAAITGSGGSTNYADSVKGRFTISRDNAKNTVYVQLNSLKPEDTAVYYCAAAGFDYPSDTYGYWGQGTQVTVSS | low polyreactivity |
| QVQLVESGGGLVQAGGSLRLSCAASGSIFRRYAMGGYRQAPGKERELVAAITSGDTTKYADSVKGRFTISRDNAKNTVYLQMNSLKPEDTAVYYCNKKGWPRFVHGFLRRDDYWGQGTQVTVSS | low polyreactivity |
| QVQLVESVGGLVQAGRSLRLSCAASGNTFLRYAMGWYRQAPGKERELVAAISRSGGSTYYADSVKGRFTISRDNAKNTVYLQMNSLKPEDTAVYYCAARRSSQPDKGYYYWGQGTQVTVSS | high polyreactivity |
| QVQLVESGGGLDQAGGSLRLTCAASGRIFGAYAMGWYRQAPGKEMELVAVISLSTGSTYYADSVKVRFTISRDNAKNTVYLQMKSLKPDDTAVYYCAVDTRFKWGWDYYYWGLGTQVTVSS | high polyreactivity |
| QVQLVESGGGLVQAGGSLRLSCAASGSTFWDYAMGWYRQAHGKERELVAAITDSGGSTYYADSVKGRFTISRDNAKNTVYLQMNSLKPEDTAVYYCAAEAYIWWAWEYEYWGQGPQVTVSS | high polyreactivity |
| QVQLVESGGGLVQAGGSLRLSCAASGSTFHFYAMGWYRQAHGKERELVASITSRGGNTHYADSVKGRFTISRDNAKNTVYFQMNSLKPEDTAVYYCAARKGTSWKAHFRFDYWGQGTQVTVSS | low polyreactivity |
| QVQLVESGGGLVQAGGSLRLSCAASGRIFYNYAMGWSRQAPGKERELVAANSGSGGSTYYADSVKGRFTISRDSAMNTVYFQMNSLKPEDTAVYYCSTSGPQYYSRNFDYWGQGTQVTVSS | low polyreactivity |

| Sequence | polyreactivity (PSR sort gate) |
| --- | --- |
| QVQLVESGGGLVQAGGSLRLICAASGSIFYRYAMGWYRQAPGKERELVAAISSNGVSTYYADSVKGRFTISRDNAKNTVYLQMNSLKPEDTAVYYCARDVYASPRLYTSRYNYWGQGTQVTVSS | low polyreactivity |
| QVQLVESGGGLVQAGGSLRLSCAASGRTFDAYAMGRYRQAPGKERELVARITSGGSTKYADSVKGRFTISRDNAKNTVYLQMNSLKPEDTAVYYCAAAQYWPSFFSNRVYYRNDYWGQGTQVTVSS | high polyreactivity |
| QVQLVESGGGLVQAGGSLRLSCAASGRTFSFYAMGWYRQAPGKERELVAAISRGGGSTYYADSVKGRFTISRDNAKNTVYLQMNSLKPEDTAVYYCAAPFLYRRGYDYWGQGTQVTVSS | high polyreactivity |
| QVQLVESGGGLVQAGGSLRLSCAASGSTIEFNAMGWYRQAPGKERELVAAISGSGASTYYADSVKGRFTISRDNAKNTVYVQMNSLKPEDTAVYYCNADSLYYDYQTVDVQALDYWGQGTQVTVSS | low polyreactivity |
| QVQLVESGGGLVQAGGSLRLSCAASGSTFGWYAMGGYRQAPGKERELVAAISSGGSTYYADSVKGRFTISRDHAKYTVYLQMNSLKPEDTAVYYCAADIGYYYRYDYWGQGTQVTVSS | low polyreactivity |
| QVHLVESGGGLVQAGGSLRLSCAASGFNLLPYALGWYRQAQGKERELVATINSGDSTYADSVKGRFTISRDNAKNTVYLQMNSLKPEDTAVYYCNAYWLVVPVDLDYWGQGTQVTVSS | low polyreactivity |
| QVQLVESGGGLVQAGGSLSLSCAASGRTLYSNAMGWYRPAPGKERELVAAISRRGSSTYYADSVKGRFTISRDNAKNSVFLQMNSLKPEDTAVYYCARYKYTRQTRVEYGYWGQGTQVTVSS | high polyreactivity |
| QVQLVESGGGLVQAGGSLRLSCAASGSTFPPNAMGWYRPAPGKERELVAVISNGGSNTRYADSVKGRFTISRDNAKNTVYLQMNSLKPEDTAVYYCAADYEYSGYGYWGQGTQVTVSS | high polyreactivity |
| QVQLVETGGGLVQAGGSLRLSCAASGRIFRNNAMGWYRQAPGKERELVAGISSGGSTYYADSVKGRFTMSRDNAKKTVYLQMNNLKPEDTAVYFFAVVGSAYQSRYDYWGQGNQVTVSS | high polyreactivity |
| QVQLVESGGGLVQAGGSLRLSCAPSGSTFRRNTMGWYRQAPGKARELVAGISSSGGSTYYADSVKGRFTISRDNAKNTVYLQMNSLKPEDTAVYYCAARFYVSYVGYNYWGQGSQVTVSS | high polyreactivity |
| QVQLVESGGGLVQAGGSLRLSCAASGRPFISYAMGWYRQAPGKERELVAAISSSGGSTYYADSVKGRFTMSRDTAKNTVYLQMNSLKPEDTAVYYCNAAKVRRDPAWRLLDYWGQGTQVTVSS | low polyreactivity |
| QVQLVESGGGLVQAGGSLRLSCAASGGTFWYNAMGLYRQAPGKERELVANIRRSGGRTNYADSVKGRFTISRDNAKNTVYLHMNSLKPEDTAVYYCAARVTPYRGFYYWGQGTQVTVSS | high polyreactivity |
| QVQLVESGGGLVQAGGSLRLSCAASGITFPSYVMGWYRQAPGKEREFVAAITGSAGSTYYADSVKGRFTISRDNAKNTVYLQMNSLKPADTAVYYCAARVRYVNPKYYYWGQGTQVTVSS | high polyreactivity |
| QVHHVESGGGLVQAGGSLRLSCAASGFIFVHNAMGCYSQAPGKERELVAAIRSRGGSTYYADSVKGRFTISRDNAKNTVYLQMNRLKPEDTAGYYCAADGAVVSSSRKFGYWGQGTQVTVSS | low polyreactivity |
| QVQLVESGGCLVQAGGSLRLSCAASGRTIRVYAMGWYRQAPGKARELVASITRAGGTYADSVKGRFTISRDIAKNPDYLQMNSLKPEDTAVYFCNARWQRSTGGRQRYDYWGQGTQVTVSS | high polyreactivity |
| QVQLVESGGGLVQAGCSLRLSCSASGRIYYAMGWYRQADGKERELVATITRSGGRTYYADSVKGRFTISRDNAKITVYLQINSLKPEDTAVYYCAKQFGRPYVGSNSYCLTYDSWGEGTQVTVSS | low polyreactivity |
| QVLLVESGGGLVQAGGSLRLSCAASGSTFPGNAMGWYRQAPGKERELVARINDGADTNYADSVKGRFTISRDNAKNTVNLQMNSLKPEDTAVYYCATPYYDGRTHFDSWGQGTQVTVSS | low polyreactivity |
| QVQVVESGGGLVQAGGSLRLSCAASGSIFYDYAMGWYRQAPGKERELVAAISWSGGRTYYADSVKGRFTISRDYAKNTVYLQMNSLKPEDTAVYYCAATTGVRSRRYYYWGQGTQVSVSS | low polyreactivity |
| QVQLVESGGGLVQSGGSLRLSCAASGLTFRRNPMGRYRQAPGKERELVATITSGGSTNYADSVKGRFTISRDNAKNTVYLQMNSLKTEDTAVYYCAARTTYITPWAGRYFSWDYDYWGQGTQVTVSS | high polyreactivity |
| QVKLVESGGGLVQAGGSLRLICAASGMTFVIYAMGWYRQAPGKERELVARNTWSGGSTYYADSEKGRFTISRDNSKNTVYLQMNSLNPEDSAVYYCAARRFYYYTAGYDYWGQGTQVTVSS | low polyreactivity |
